# According to patent US20240092919A1 (Ablynx, published 2024):
# Numbering of substitutions follows the chain as printed.
# T1: Cynomolgus TCR(AEA41865/AEA41866)-zipper protein (cynomolgus monkey)
# T1 construct: also called cyTCR-zipper protein; cynoTCR zipper
# T1 TCR alpha: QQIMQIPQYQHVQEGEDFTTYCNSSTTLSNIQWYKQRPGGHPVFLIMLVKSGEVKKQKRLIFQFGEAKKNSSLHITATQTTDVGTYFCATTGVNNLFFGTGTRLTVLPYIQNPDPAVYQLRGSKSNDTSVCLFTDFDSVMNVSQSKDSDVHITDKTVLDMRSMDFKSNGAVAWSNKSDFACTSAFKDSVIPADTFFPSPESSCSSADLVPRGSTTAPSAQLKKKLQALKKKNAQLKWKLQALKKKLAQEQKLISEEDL
# T1 TCR beta: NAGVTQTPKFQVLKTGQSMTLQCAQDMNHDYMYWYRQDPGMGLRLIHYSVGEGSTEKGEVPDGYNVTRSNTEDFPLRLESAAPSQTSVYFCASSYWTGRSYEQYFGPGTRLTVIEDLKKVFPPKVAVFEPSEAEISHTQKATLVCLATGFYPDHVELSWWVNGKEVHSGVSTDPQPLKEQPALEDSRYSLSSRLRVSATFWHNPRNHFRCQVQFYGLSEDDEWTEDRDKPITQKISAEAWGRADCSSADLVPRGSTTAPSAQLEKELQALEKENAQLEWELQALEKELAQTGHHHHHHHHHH
# B1: T017000408 (VHH)
# VHH: EVQLVESGGGVVQPGGSLRLSCVASGSVHKINFYGWYRQAPGKEREKVAHISIGDQTDYADSAKGRFTISRDESKNMVYLQMNSLRPEDTALYFCRAMSRIWPYDYWGQGTLVTVSS
# B2: T017000609 (VHH)
# VHH: B1 VHH with S27D, K30Q, Y34L, M98F, R100K, W102Y
# B3: T017000499 (VHH)
# VHH: B1 VHH with S27Y, I31L, Y34L
# B4: T017000774 (VHH)
# VHH: B1 VHH with S27D, K30Q, R100K
# B5: T017000411 (VHH)
# VHH: B1 VHH with G26W, S27D
# B6: T017000554 (VHH)
# VHH: B1 VHH with G26Y, S27D, K30Q, Y34L, R100K, W102Y
# B7: T017000419 (VHH)
# VHH: B1 VHH with S27A, I31L
# B8: T017000432 (VHH)
# VHH: B1 VHH with I31L, R100K
# B9: T017000461 (VHH)
# VHH: B1 VHH with S27D, K30Q
# B10: T017000473 (VHH)
# VHH: B1 VHH with S27Y, K30Q, W102Y
# B11: T017000434 (VHH)
# VHH: B1 VHH with I31L, W102Y
# B12: T017000440 (VHH)
# VHH: B1 VHH with G26W, S27D, I31L, R100K
# B13: T017000442 (VHH)
# VHH: B1 VHH with S27Y, I31L, W102Y
# B14: T017000410 (VHH)
# VHH: B1 VHH with S27Y, I31L, M98F, Y106W
# B15: T017000776 (VHH)
# VHH: B1 VHH with G26W, K30Q, R100K
# B16: T017000614 (VHH)
# VHH: B1 VHH with S27Y, M98L
# B17: T017000577 (VHH)
# VHH: B1 VHH with G26W, S27D, K30Q, Y34L, W102Y
# B18: T017000550 (VHH)
# VHH: B1 VHH with K30Q, Y34L, W102Y, Y106W
# B19: T017000418 (VHH)
# VHH: B1 VHH with S27A, I31L, W102Y
# B20: T017000610 (VHH)
# VHH: B1 VHH with S27D, K30Q, Y34L, M98L, R100K, W102Y
# B21: T017000521 (VHH)
# VHH: B1 VHH with K30Q, I31L
# B22: T017000505 (VHH)
# VHH: B1 VHH with S27D, K30Q, I31L, Y34L, M98F, R100K, W102Y
# B23: T017000607 (VHH)
# VHH: B1 VHH with G26W, S27D, K30Q, M98F, R100K
# B24: T017000754 (VHH)
# VHH: B1 VHH with S27Y, K30Q, Y34L, R100K
# B25: T017000566 (VHH)
# VHH: B1 VHH with S27Y, I31L, Y34L, Y106W
# B26: T017000742 (VHH)
# VHH: B1 VHH with S27Y, K30Q, Y106W
# B27: T017000766 (VHH)
# VHH: B1 VHH with S27Y, R100K, W102Y
# B28: T017000498 (VHH)
# VHH: B1 VHH with S27A, Y106W
# B29: T017000589 (VHH)
# VHH: B1 VHH with S27Y, I31L, Y106W
# B30: T017000413 (VHH)
# VHH: B1 VHH with G26W, S27D, K30Q, I31L, R100K
# B31: T017000740 (VHH)
# VHH: B1 VHH with G26W, S27D, K30Q, I31L, R100K, W102Y
# B32: T017000443 (VHH)
# VHH: B1 VHH with G26W, S27D, K30Q, R100K, W102Y
# B33: T017000539 (VHH)
# VHH: B1 VHH with S27Y, Y106W
# B34: T017000509 (VHH)
# VHH: B1 VHH with S27A, Y34L, R100K, Y106W
# B35: T017000515 (VHH)
# VHH: B1 VHH with S27A, Y34L
# B36: T017000757 (VHH)
# VHH: B1 VHH with S27A, I31L, Y34L, M98F, R100K, Y106W
# B37: T017000750 (VHH)
# VHH: B1 VHH with G26Y, S27A, K30Q
# B38: T017000593 (VHH)
# VHH: B1 VHH with S27A, I31L, R100K
# B39: T017000588 (VHH)
# VHH: B1 VHH with S27A, R100K
# B40: T017000530 (VHH)
# VHH: B1 VHH with S27A, I31L, Y34L, G65D, W102Y
# B41: T017000531 (VHH)
# VHH: B1 VHH with Y34L, Y106W
# B42: T017000415 (VHH)
# VHH: B1 VHH with G26W, S27D, K30Q
# B43: T017000611 (VHH)
# VHH: B1 VHH with S27D, K30Q, M98F, R100K, W102Y
# B44: T017000547 (VHH)
# VHH: B1 VHH with S27A, I31L, M98F
# B45: T017000759 (VHH)
# VHH: B1 VHH with M98F, R100K, Y106W
# B46: T017000518 (VHH)
# VHH: B1 VHH with G26Y, K30Q, I31L, Y34L
# B47: T017000612 (VHH)
# VHH: B1 VHH with S27D, K30Q, I31L, Y34L, M98L, R100K, W102Y
# B48: T017000578 (VHH)
# VHH: B1 VHH with G26Y, S27D, K30Q, I31L
# B49: T017000423 (VHH)
# VHH: B1 VHH with K30Q, Y34L
# B50: T017000608 (VHH)
# VHH: B1 VHH with G26W, S27D, M98F, R100K
# B51: T017000450 (VHH)
# VHH: B1 VHH with S27Y, K30Q, Y34L
# B52: T017000538 (VHH)
# VHH: B1 VHH with S27Y, I31L
# Target: T1, Cynomolgus …
# Experiment: SPR ProteOn off-rate screen
# Text: Unique ISVD clones, i.e. clones with a unique sequence, were subsequently selected and screened to determine their off-rate. To this purpose, the ISVD containing periplasmic extracts were screened on huTCR-zipper and cyTCR-zipper protein by SPR on a ProteOn XPR36 instrument. The zipper proteins were immobilized on a GLC sensor chip (between 4300 and 5100RU) via amine coupling chemistry, using EDC/sulfo-NHS for activation of the carboxyl groups on the chip surface (running buffer: HBS-EP+, pH7.4). Periplasmic extracts were injected at 1/10 dilution for 2 min (at a flow rate of 45 μL/min) and dissociation was followed for 900 s. A pulse of 100 s of 3 M MgCl2 at 45 μL/min was used for regeneration. […] Processed sensorgrams were fitted with the Langmuir model (1:1 interaction) using ProteOn Manager 3.1.0 (Version 3.1.0.6) software.
row,koff [s⁻¹],Binder
1,0.000714,B1
2,0.00114,B2
3,0.00106,B3
4,0.000431,B4
5,0.00156,B5
6,0.000767,B6
7,0.0011,B7
8,0.000142,B8
9,0.00206,B9
10,0.00238,B10
11,0.00153,B11
12,0.000346,B12
13,0.00146,B13
14,0.00159,B14
15,0.000525,B15
16,0.00116,B16
17,0.00188,B17
18,0.0095,B18
19,0.00187,B19
20,0.000857,B20
21,0.00275,B21
22,0.00143,B22
23,0.000316,B23
24,0.000237,B24
25,0.00164,B25
26,0.00391,B26

row,koff [s⁻¹],Binder
1,0.000239,B27
2,0.00223,B28
3,0.00115,B29
4,0.000238,B30
5,0.000391,B31
6,0.000209,B32
7,0.00151,B33
8,0.000609,B34
9,0.00126,B35
10,0.000603,B36
11,0.00373,B37
12,0.00019,B38
13,0.000158,B39
14,0.00182,B40
15,0.00232,B41
16,0.000918,B42
17,0.00171,B43
18,0.00156,B44
19,0.00101,B45
20,0.0268,B46
21,0.00105,B47
22,0.00349,B48
23,0.00184,B49
24,0.000472,B50
25,0.0017,B51
26,0.000766,B52
